Starred links: 1 amine or outer side, 2 acyl side, 3 side chain; linkers in the order of their positions; H or OH if unused. Residues, ends and D or L forms follow the SMILES beside them. Groups on a side chain read outwards from the residue. *: point of attachment. C20 diacid = O=C(O)CCCCCCCCCCCCCCCCCCC(=O)*; C18 diacid = O=C(O)CCCCCCCCCCCCCCCCC(=O)*; γGlu = O=C(O)[C@H](CCC(=O)[*:2])N[*:1]; AEEA = NCCOCCOCC(=O)O
B1: acylated GLP-1R antagonist analog conjugate (SEQ ID NO: 15) (peptide)
peptide: Ac-DVSSYLEEEAVRLFIAWLVK([AEEA-AEEA-γGlu-C18 diacid])GGPSSGAPPPS-NH2
SMILES: CC[C@H](C)[C@H](NC(=O)[C@H](Cc1ccccc1)NC(=O)[C@H](CC(C)C)NC(=O)[C@H](CCCNC(=N)N)NC(=O)[C@@H](NC(=O)[C@H](C)NC(=O)[C@H](CCC(=O)O)NC(=O)[C@H](CCC(=O)O)NC(=O)[C@H](CCC(=O)O)NC(=O)[C@H](CC(C)C)NC(=O)[C@H](Cc1ccc(O)cc1)NC(=O)[C@H](CO)NC(=O)[C@H](CO)NC(=O)[C@@H](NC(=O)[C@H](CC(=O)O)NC(C)=O)C(C)C)C(C)C)C(=O)N[C@@H](C)C(=O)N[C@@H](Cc1c[nH]c2ccccc12)C(=O)N[C@@H](CC(C)C)C(=O)N[C@H](C(=O)N[C@@H](CCCCNC(=O)COCCOCCNC(=O)COCCOCCNC(=O)CC[C@H](NC(=O)CCCCCCCCCCCCCCCCC(=O)O)C(=O)O)C(=O)NCC(=O)NCC(=O)N1CCC[C@H]1C(=O)N[C@@H](CO)C(=O)N[C@@H](CO)C(=O)NCC(=O)N[C@@H](C)C(=O)N1CCC[C@H]1C(=O)N1CCC[C@H]1C(=O)N1CCC[C@H]1C(=O)N[C@@H](CO)C(N)=O)C(C)C
B2: acylated GLP-1R antagonist analog conjugate (SEQ ID NO: 20) (peptide)
peptide: Ac-DVSSYLEEEAVRLFIAWLVKGGPSSGAPPPSK([AEEA-AEEA-γGlu-C20 diacid])-NH2
SMILES: CC[C@H](C)[C@H](NC(=O)[C@H](Cc1ccccc1)NC(=O)[C@H](CC(C)C)NC(=O)[C@H](CCCNC(=N)N)NC(=O)[C@@H](NC(=O)[C@H](C)NC(=O)[C@H](CCC(=O)O)NC(=O)[C@H](CCC(=O)O)NC(=O)[C@H](CCC(=O)O)NC(=O)[C@H](CC(C)C)NC(=O)[C@H](Cc1ccc(O)cc1)NC(=O)[C@H](CO)NC(=O)[C@H](CO)NC(=O)[C@@H](NC(=O)[C@H](CC(=O)O)NC(C)=O)C(C)C)C(C)C)C(=O)N[C@@H](C)C(=O)N[C@@H](Cc1c[nH]c2ccccc12)C(=O)N[C@@H](CC(C)C)C(=O)N[C@H](C(=O)N[C@@H](CCCCN)C(=O)NCC(=O)NCC(=O)N1CCC[C@H]1C(=O)N[C@@H](CO)C(=O)N[C@@H](CO)C(=O)NCC(=O)N[C@@H](C)C(=O)N1CCC[C@H]1C(=O)N1CCC[C@H]1C(=O)N1CCC[C@H]1C(=O)N[C@@H](CO)C(=O)N[C@@H](CCCCNC(=O)COCCOCCNC(=O)COCCOCCNC(=O)CC[C@H](NC(=O)CCCCCCCCCCCCCCCCCCC(=O)O)C(=O)O)C(N)=O)C(C)C
B3: acylated GLP-1R antagonist analog conjugate (SEQ ID NO: 16) (peptide)
peptide: Ac-DVSSYLEEEAARLFIAWLVK([AEEA-AEEA-γGlu-C18 diacid])GGPSSGAPPPS-NH2
SMILES: CC[C@H](C)[C@H](NC(=O)[C@H](Cc1ccccc1)NC(=O)[C@H](CC(C)C)NC(=O)[C@H](CCCNC(=N)N)NC(=O)[C@H](C)NC(=O)[C@H](C)NC(=O)[C@H](CCC(=O)O)NC(=O)[C@H](CCC(=O)O)NC(=O)[C@H](CCC(=O)O)NC(=O)[C@H](CC(C)C)NC(=O)[C@H](Cc1ccc(O)cc1)NC(=O)[C@H](CO)NC(=O)[C@H](CO)NC(=O)[C@@H](NC(=O)[C@H](CC(=O)O)NC(C)=O)C(C)C)C(=O)N[C@@H](C)C(=O)N[C@@H](Cc1c[nH]c2ccccc12)C(=O)N[C@@H](CC(C)C)C(=O)N[C@H](C(=O)N[C@@H](CCCCNC(=O)COCCOCCNC(=O)COCCOCCNC(=O)CC[C@H](NC(=O)CCCCCCCCCCCCCCCCC(=O)O)C(=O)O)C(=O)NCC(=O)NCC(=O)N1CCC[C@H]1C(=O)N[C@@H](CO)C(=O)N[C@@H](CO)C(=O)NCC(=O)N[C@@H](C)C(=O)N1CCC[C@H]1C(=O)N1CCC[C@H]1C(=O)N1CCC[C@H]1C(=O)N[C@@H](CO)C(N)=O)C(C)C
B4: acylated GLP-1R antagonist analog conjugate (SEQ ID NO: 18) (peptide)
peptide: Ac-DVSSYLEEEAVRLFIAWLVKGGPSSGAPPPSK([AEEA-AEEA-γGlu-C18 diacid])-NH2
SMILES: CC[C@H](C)[C@H](NC(=O)[C@H](Cc1ccccc1)NC(=O)[C@H](CC(C)C)NC(=O)[C@H](CCCNC(=N)N)NC(=O)[C@@H](NC(=O)[C@H](C)NC(=O)[C@H](CCC(=O)O)NC(=O)[C@H](CCC(=O)O)NC(=O)[C@H](CCC(=O)O)NC(=O)[C@H](CC(C)C)NC(=O)[C@H](Cc1ccc(O)cc1)NC(=O)[C@H](CO)NC(=O)[C@H](CO)NC(=O)[C@@H](NC(=O)[C@H](CC(=O)O)NC(C)=O)C(C)C)C(C)C)C(=O)N[C@@H](C)C(=O)N[C@@H](Cc1c[nH]c2ccccc12)C(=O)N[C@@H](CC(C)C)C(=O)N[C@H](C(=O)N[C@@H](CCCCN)C(=O)NCC(=O)NCC(=O)N1CCC[C@H]1C(=O)N[C@@H](CO)C(=O)N[C@@H](CO)C(=O)NCC(=O)N[C@@H](C)C(=O)N1CCC[C@H]1C(=O)N1CCC[C@H]1C(=O)N1CCC[C@H]1C(=O)N[C@@H](CO)C(=O)N[C@@H](CCCCNC(=O)COCCOCCNC(=O)COCCOCCNC(=O)CC[C@H](NC(=O)CCCCCCCCCCCCCCCCC(=O)O)C(=O)O)C(N)=O)C(C)C

molecular target: human GLP-1 receptor (GLP-1R) (human, UniProt P43220 24-463); experiment: cell-based or functional assay; conditions: not given

In order of falling “In vitro activity compared with comparative substance (%); IC50 of cAMP inhibition in hGLP-1R CHO cells with 0.1 nM GLP-1” value:
1. DLSSYLEEEAVRLFIEWLKNGGPSSGAPPPS (N-terminus acetylated; C-terminal amide) [GLP-1R antagonist analog (SEQ ID NO: 10)]  250%
2. Ac-DVSSYLEEEAVRLFIAWLVKGGPSSGAPPPS-NH2 [GLP-1R antagonist analog (SEQ ID NO: 8)]  238%
3. Ac-TSDVSSYLEEEAVRLFIAWLVKGGPSSGAPPPS-NH2 [GLP-1R antagonist analog (SEQ ID NO: 7)]  196%
4. Ac-DVSSYLEEQAVREFIAWLVKGGPSSGAPPPS-NH2 [GLP-1R antagonist analog (SEQ ID NO: 9)]  189%
5. Ac-DVSSYLEEEAVRLFIAWLVKGGPSSGAPPPSC-NH2 [GLP-1R antagonist analog (SEQ ID NO: 12)]  189%
6. DLSSQMEEEAVRLFIEWLKNGGPSSGAPPPS (N-terminus acetylated; C-terminal amide) [GLP-1R antagonist analog (SEQ ID NO: 5)]  85%
7. B4  19.8%
8. B2  15.1%
9. B1  14.3%
10. B3  13.5%

molecular target: human GLP-1R (hGLP-1R) (Homo sapiens, UniProt P43220); experiment: In vitro cell activity: cAMP inhibition (LANCE Ultra cAMP kit) in CHO cells expressing human GLP-1R, with GLP-1 added; format: cell-based; conditions: relative activity from IC50 of cAMP inhibition; 0.1 nM GLP-1 added; comparative substance exendin-3 (9-39) amide = 100
Sequence (P43220 24-463): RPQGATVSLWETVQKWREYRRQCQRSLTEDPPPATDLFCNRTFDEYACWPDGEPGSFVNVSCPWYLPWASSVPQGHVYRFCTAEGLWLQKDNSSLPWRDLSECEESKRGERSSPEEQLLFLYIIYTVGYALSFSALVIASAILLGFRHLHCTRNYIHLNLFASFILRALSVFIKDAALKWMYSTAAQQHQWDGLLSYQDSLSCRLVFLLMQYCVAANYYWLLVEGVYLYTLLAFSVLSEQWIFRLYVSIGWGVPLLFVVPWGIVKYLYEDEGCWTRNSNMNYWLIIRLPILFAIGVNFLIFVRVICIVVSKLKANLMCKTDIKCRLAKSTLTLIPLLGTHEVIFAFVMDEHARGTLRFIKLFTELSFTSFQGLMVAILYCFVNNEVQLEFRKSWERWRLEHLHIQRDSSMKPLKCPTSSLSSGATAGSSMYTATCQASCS
Procedure: The human GLP-1R-expressed CHO cells were cultured in a 384-well plate for 24 hours. Thereafter, the culture was removed, and 10 µL of each serially diluted substance was added to the plate, followed by incubation at room temperature for 30 minutes. Then, 5 µL of Eu-cAMP tracer was added, and then 5 µL of a buffer containing cAMP antibodies was added, followed by incubation at room temperature for 60 minutes. […]

In order of rising “In vitro activity compared with comparative substance (%)” value:
1. CC[C@H](C)[C@H](NC(=O)[C@H](Cc1ccccc1)NC(=O)[C@H](CCC(=O)O)NC(=O)[C@H](CCCNC(=N)N)NC(=O)[C@@H](NC(=O)[C@H](C)NC(=O)[C@H](CCC(N)=O)NC(=O)[C@H](CCC(=O)O)NC(=O)[C@H](CCC(=O)O)NC(=O)[C@H](CC(C)C)NC(=O)[C@H](Cc1ccc(O)cc1)NC(=O)[C@H](CO)NC(=O)[C@H](CO)NC(=O)[C@@H](NC(=O)[C@H](CC(=O)O)NC(C)=O)C(C)C)C(C)C)C(=O)N[C@@H](C)C(=O)N[C@@H](Cc1c[nH]c2ccccc12)C(=O)N[C@@H](CC(C)C)C(=O)N[C@H](C(=O)N[C@@H](CCCCN)C(=O)NCC(=O)NCC(=O)N1CCC[C@H]1C(=O)N[C@@H](CO)C(=O)N[C@@H](CO)C(=O)NCC(=O)N[C@@H](C)C(=O)N1CCC[C@H]1C(=O)N1CCC[C@H]1C(=O)N1CCC[C@H]1C(=O)N[C@@H](CO)C(N)=O)C(C)C [SEQ ID NO: 9] (Ac-DVSSYLEEQAVREFIAWLVKGGPSSGAPPPS-NH2)  188.6%
2. CC[C@H](C)[C@H](NC(=O)[C@H](Cc1ccccc1)NC(=O)[C@H](CC(C)C)NC(=O)[C@H](CCCNC(=N)N)NC(=O)[C@@H](NC(=O)[C@H](C)NC(=O)[C@H](CCC(=O)O)NC(=O)[C@H](CCC(=O)O)NC(=O)[C@H](CCC(=O)O)NC(=O)[C@H](CC(C)C)NC(=O)[C@H](Cc1ccc(O)cc1)NC(=O)[C@H](CO)NC(=O)[C@H](CO)NC(=O)[C@@H](NC(=O)[C@H](CC(=O)O)NC(=O)[C@H](CO)NC(=O)[C@@H](NC(C)=O)[C@@H](C)O)C(C)C)C(C)C)C(=O)N[C@@H](C)C(=O)N[C@@H](Cc1c[nH]c2ccccc12)C(=O)N[C@@H](CC(C)C)C(=O)N[C@H](C(=O)N[C@@H](CCCCN)C(=O)NCC(=O)NCC(=O)N1CCC[C@H]1C(=O)N[C@@H](CO)C(=O)N[C@@H](CO)C(=O)NCC(=O)N[C@@H](C)C(=O)N1CCC[C@H]1C(=O)N1CCC[C@H]1C(=O)N1CCC[C@H]1C(=O)N[C@@H](CO)C(N)=O)C(C)C [SEQ ID NO: 7] (Ac-TSDVSSYLEEEAVRLFIAWLVKGGPSSGAPPPS-NH2)  195.5%
3. CC[C@H](C)[C@H](NC(=O)[C@H](Cc1ccccc1)NC(=O)[C@H](CC(C)C)NC(=O)[C@H](CCCNC(=N)N)NC(=O)[C@@H](NC(=O)[C@H](C)NC(=O)[C@H](CCC(=O)O)NC(=O)[C@H](CCC(=O)O)NC(=O)[C@H](CCC(=O)O)NC(=O)[C@H](CC(C)C)NC(=O)[C@H](Cc1ccc(O)cc1)NC(=O)[C@H](CO)NC(=O)[C@H](CO)NC(=O)[C@@H](NC(=O)[C@H](CC(=O)O)NC(C)=O)C(C)C)C(C)C)C(=O)N[C@@H](C)C(=O)N[C@@H](Cc1c[nH]c2ccccc12)C(=O)N[C@@H](CC(C)C)C(=O)N[C@H](C(=O)N[C@@H](CCCCN)C(=O)NCC(=O)NCC(=O)N1CCC[C@H]1C(=O)N[C@@H](CO)C(=O)N[C@@H](CO)C(=O)NCC(=O)N[C@@H](C)C(=O)N1CCC[C@H]1C(=O)N1CCC[C@H]1C(=O)N1CCC[C@H]1C(=O)N[C@@H](CO)C(N)=O)C(C)C [SEQ ID NO: 8] (Ac-DVSSYLEEEAVRLFIAWLVKGGPSSGAPPPS-NH2)  238.5%

From patent publication EP4603506A1, “NOVEL GLP-1 RECEPTOR ANTAGONIST, AND PHARMACEUTICAL COMPOSITION FOR PREVENTING OR TREATING CONGENITAL […] OR HYPOGLYCEMIA, COMPRISING SAME” (Hanmi Pharm. Co., Ltd., priority 2022, dated 2024)
